In the supplement of paper PMC10567573:

B1: ZNF649 (parent)
chain: LTEHKRIHTGKKPHVCSLCGKAFY
B2: CD207 (parent)
chain: MTVEKEAPDAHFTVDKQNISLWPR

Variants of: B1
Test: protein stability index of a GFP-peptide fusion (GPS, HEK-293T) (PSI 1-6); higher = more stable
Settings: c terminus: a fixed tail appended
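Further: lentivirally expressed fusions sorted by FACS into six bins by GFP to DsRed ratio, PSI derived from sequencing read proportions per bin multiplied by bin number.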

Protein stability index: each site, then its substitutions
C19: G 2.39 | S 1.92 | Y 2.15 | K 2.64 | E 3.09 | I 1.75 | H 3.06 | V 2.1 | F 1.81 | N 2.89 | R 3.01 | P 2.38 | L 2.24 | D 3.3 | M 2.46 | T 2.24 | A 2.65 | W 1.3 | Q 2.04
V15: F 2.42 | R 2.32 | S 2.23 | W 1.83 | Q 2.35 | D 2.93 | A 1.54 | K 2.9 | C 2.6 | Y 2.55 | T 2.46 | N 2.05 | G 2.56 | P 2.71 | H 2.34 | M 2.98 | L 1.89 | E 2.56 | I 2.69
Y24: D 3.12 | R 2.42 | L 3.01 | E 2.82 | V 2.33 | G 3.35 | C 3.33 | P 3.45 | K 3.3 | H 3.35 | I 1.81 | T 3.42 | A 2.88 | M 2.69 | Q 3.04 | N 1.43
K21: V 3.11 | S 2.44 | M 1.98 | L 1.77 | E 2.67 | F 1.73 | P 2.55 | H 1.91 | N 3.08 | Q 3.8 | T 2.78 | G 2.38 | I 2.11 | W 2.15 | Y 1.79 | C 1.39 | D 2.72 | A 2.03
G20: A 3.75 | T 1.55 | C 2.93 | M 2.56 | R 2.05 | D 2.79 | N 3.49 | F 1.97 | W 2.59 | K 1.24 | S 2.35 | P 1.91 | H 1.6 | Y 2.9 | V 1.94 | L 2.06 | I 1.91 | Q 3.04
F23: D 3.98 | S 2.97 | M 2.56 | W 1.52 | V 2.32 | C 3.07 | K 3.87 | G 2.67 | P 3.32 | H 4.3 | N 2.4 | I 2.45 | Y 2.47 | T 2.32 | R 2.69 | Q 2.3 | E 3.69 | A 2.77
L18: K 2.66 | G 2.82 | I 2.23 | V 2.37 | T 2.35 | Q 2.9 | E 3.18 | W 1.7 | D 2.84 | A 1.97 | H 3.13 | R 3 | P 3.85 | N 5.08 | S 2.89 | Y 2.2 | C 3.2 | M 3.36
H14: N 1.97 | G 2.22 | R 2.2 | F 2.4 | T 2.17 | L 2.71 | Y 2.63 | A 3.54 | D 2.34 | W 3.52 | C 2.78 | P 3.18 | M 2.86 | V 1.96 | S 2.25 | Q 2.97
S17: I 2.48 | F 2.2 | R 1.94 | L 1.72 | W 2.72 | T 1.82 | G 1.72 | P 2.97 | Q 2.46 | V 1.49 | A 2.58 | C 1.96 | N 2.58 | Y 2.11 | K 2.34 | M 2.83 | H 2.01 | E 2.84
P13: Y 2.88 | G 2.48 | T 3.55 | D 1.8 | R 3.48 | N 2.15 | I 2.84 | Q 2.26 | H 2.29 | M 3.06 | F 2.23 | K 2.03 | S 2.33 | L 2.32 | E 2.96 | V 3.06
K12: Y 2.32 | W 2.27 | V 3.42 | T 1.79
C16: K 2.32 | V 2.2 | Y 2.23 | R 2.4 | P 2.56 | T 2.23 | A 2.94 | D 3.15 | S 3.52 | E 3.62 | F 1.48 | M 2.75 | G 2.01 | H 2.71 | N 2.55 | Q 1.93 | I 2.18 | L 2.17
A22: H 2.46 | Q 2.26 | S 2.55 | L 2.27 | N 3.23 | E 2.24 | M 2.85 | G 2.56 | T 3.41 | I 2.62 | V 2.85 | K 3.71 | R 3.22 | D 2.51 | F 2.16 | P 2.9 | C 2.55 | W 2.48

Variants of: B2
Test: as above
Settings: c terminus: a fixed tail appended

Protein stability index, by site and new letter:
A7: F 2.77 | E 4.23 | K 3.11 | D 3.79 | H 3.32 | I 2.67 | L 2.96 | C 3.31
E4: I 2.56 | M 3.2 | D 3.67 | L 2.79 | A 3.17 | S 3.68 | R 3.02 | V 3.38 | N 2.86 | C 3.11 | Q 3.92 | W 1.99 | Y 2.43 | G 3.37 | H 3 | F 2.28 | P 3.18 | T 2.77
M1: Q 3.8 | N 3.68 | G 4.16 | D 4.23 | H 3.27 | S 3.57 | W 3.13 | E 3.36 | L 3.07 | T 3.45 | A 3.62 | F 2.11 | K 2.81 | P 4.17 | C 3.38 | V 3.76 | I 2.8 | Y 2.37 | R 3.98
V3: Q 3.42 | C 2.68 | G 3.19 | E 3.72 | H 3.54 | Y 2.75 | D 4.12 | F 2.85 | P 4.07 | W 2.86 | I 3.33 | S 3.55 | N 3.93 | R 3.9 | A 3.47 | M 3.09 | K 3.79 | T 3.57 | L 3.44
K5: I 1.95 | N 3.13 | D 3.48 | P 3.48 | S 3.04 | M 2.04 | F 2.02 | R 2.94 | V 1.53 | A 2.96 | W 2.04 | T 2.89 | C 2.58 | L 1.86 | H 3.27 | G 3.79 | E 4.03 | Y 1.99
T2: Y 2.18 | I 2.94 | R 2.83 | G 3.68 | Q 3.54 | D 3.62 | A 3.35 | M 3.86 | C 2.54 | S 3.57 | K 3.65 | V 3.21 | W 2.59 | H 3.08 | N 3.36 | L 3.17 | F 2.71
E6: A 3.21 | D 3.31 | P 3.14 | T 3.08 | S 3.01 | Q 3.25 | K 3.47 | Y 2.38 | I 2.37 | R 2.74 | C 2.32 | V 2.05 | M 2.52 | H 2.83 | W 2.29 | G 3.27 | F 2.27 | N 3.23 | L 2.72
